Article PMC12318605

Assays:
[1] = molecular target: Asp268 (UniProt position 268, QAVPVDVHMWH); assay: kinetics; conditions: 15 °C; 100 mM NaCl; 50 mM citric acid-Na2HPO4; Single-turnover conditions: 10 µM hOGG1(K249H) with 5.0 µM oxoG-containing DNA duplex F-oG23/C23 (substrate-bound enzyme)
[2] = molecular target: His249 (UniProt position 249, PGVGTHVADCI); assay: NMR; conditions: 25 °C; 50 mM NaCl; 20 mM sodium phosphate (starting pH 6.8; pH adjusted with HCl or NaOH); 0.1 mM 13C-labelled hOGG1(K249H); no DNA is mentioned in the sample (apparently free enzyme)

Q: For “8-oxoguanine DNA glycosylase 1 (hOGG1), K249H mutant (Homo sapiens; K249H)”, which pKa [1] is on record?
A: The pKa was 4.5 ± 0.39.

Q: And the pKa [2]?
A: The pKa was 5.54 ± 0.05.
